Reference: patent US20040235117A1
Values joined by “and” are separate entries in the source; they are usually repeats but may differ in a detail not shown here. Identical values can stand only once.

Tests used:
[1] = target: Flag-CD40L (AA 116 to 261) (human) (UniProt P29965); assay: competitive ELISA, CD40:Fc coated on the plate, sCD40L at constant concentration
[2] = target: Flag-CD40L (AA 116 to 261) (human) (UniProt P29965); assay: competitive ELISA, CD40:Fc coated on the plate, sCD40L at constant concentration, protein A 1 ug/ml
[3] = target: fusion protein (1), FasL trimer (flag sequence, linker, hFasL AA 139 to 281) (human) (UniProt P48023); assay: cell-based or functional assay
[4] = target: TRAIL trimer (flag sequence, linker, hTRAIL AA 95 to 281) (human) (UniProt P50591); assay: BIAcore, 7 ul of 2.5 ug/ml Flag-TRAIL over immobilised M2 antibody
UniProt P50591, sequence (P50591 other isoform, or with tags, fused parts or gaps limits assumed): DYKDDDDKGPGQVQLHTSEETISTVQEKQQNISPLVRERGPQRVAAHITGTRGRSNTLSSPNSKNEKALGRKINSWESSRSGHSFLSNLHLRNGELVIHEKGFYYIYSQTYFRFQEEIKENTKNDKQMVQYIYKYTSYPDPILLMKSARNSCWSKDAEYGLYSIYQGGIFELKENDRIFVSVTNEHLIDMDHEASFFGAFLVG

[5] = target: fusion protein (1), FasL trimer (flag sequence, linker, hFasL AA 139 to 281) (human) (UniProt P48023); assay: BIAcore, 7 ul of 2.5 ug/ml Flag-FasL over immobilised M2 antibody
[6] = target: fusion protein (5), TRAIL-ACRP30 (murine; human) (UniProt Q60994); assay: cell-based or functional assay
UniProt Q60994, sequence (Q60994 other isoform, or with tags, fused parts or gaps limits assumed): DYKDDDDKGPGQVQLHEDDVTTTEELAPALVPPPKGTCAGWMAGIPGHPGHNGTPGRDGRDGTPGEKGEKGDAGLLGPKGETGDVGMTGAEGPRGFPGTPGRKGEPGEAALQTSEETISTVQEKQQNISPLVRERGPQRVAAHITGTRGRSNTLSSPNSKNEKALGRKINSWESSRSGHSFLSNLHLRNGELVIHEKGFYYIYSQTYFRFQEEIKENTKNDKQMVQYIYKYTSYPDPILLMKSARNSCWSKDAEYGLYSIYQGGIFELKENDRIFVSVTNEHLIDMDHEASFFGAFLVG

[7] = target: fusion protein (3), super FasL (human) (UniProt P48023); assay: cell-based or functional assay
[8] = target: TNF receptor 2 (TNF-R2) on CT6 cells (mouse (on CT6 cells of mice)) (UniProt P25119); assay: cell-based or functional assay
UniProt P25119, sequence (P25119 23-474): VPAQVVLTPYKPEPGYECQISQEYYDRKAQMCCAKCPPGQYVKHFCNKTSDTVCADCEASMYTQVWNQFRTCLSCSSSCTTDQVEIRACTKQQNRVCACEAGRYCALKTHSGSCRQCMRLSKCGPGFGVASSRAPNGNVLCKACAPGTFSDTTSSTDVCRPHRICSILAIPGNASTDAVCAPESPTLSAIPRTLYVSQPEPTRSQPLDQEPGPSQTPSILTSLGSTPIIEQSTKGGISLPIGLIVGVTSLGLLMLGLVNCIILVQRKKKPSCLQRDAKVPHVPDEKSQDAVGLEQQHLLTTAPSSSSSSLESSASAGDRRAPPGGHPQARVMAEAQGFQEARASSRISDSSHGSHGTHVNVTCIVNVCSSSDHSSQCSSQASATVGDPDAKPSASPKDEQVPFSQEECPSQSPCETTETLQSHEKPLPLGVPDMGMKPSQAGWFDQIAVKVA

[9] = target: fusion protein (1), FasL trimer (flag sequence, linker, hFasL AA 139 to 281) (human) (UniProt P48023); assay: BIAcore, Flag-FasL captured on an M2-modified CM5 chip; reference Fas:Fc
[10] = target: fusion protein (1), FasL trimer (flag sequence, linker, hFasL AA 139 to 281) (human) (UniProt P48023); assay: cell-based or functional assay; remark: listed apart in the source
[11] = target: fusion protein (1), FasL trimer (flag sequence, linker, hFasL AA 139 to 281) (human) (UniProt P48023); assay: BIAcore, Flag-FasL captured on an M2-modified CM5 chip, receptor fusion protein injected

UniProt P29965, sequence (P29965 other isoform, or with tags, fused parts or gaps limits assumed): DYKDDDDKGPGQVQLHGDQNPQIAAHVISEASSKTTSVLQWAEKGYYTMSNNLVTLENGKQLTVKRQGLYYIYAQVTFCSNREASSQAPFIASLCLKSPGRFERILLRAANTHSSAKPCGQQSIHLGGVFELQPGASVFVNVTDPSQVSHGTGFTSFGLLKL

Q: With CD40:COMP (receptor) as the molecule, how does the fold increase in the affinity (against CD40:Fc) [1] read?
A: The fold increase in the affinity (against CD40:Fc) was 30 fold.

Q: How did the fold increase in the affinity (against CD40:Fc) [2] turn out when “CD40:Fc/PA (from UniProt P25942 21-193) (Fc fusion)” was run?
A: Its fold increase in the affinity (against CD40:Fc) is 8 fold.

Q: For “Fas:CMP (from UniProt P25445 1-170) (receptor)”, which inhibition of sFasL-mediated lysis, fold less effective than Fas:COMP [3] is on record?
A: The inhibition of sFasL-mediated lysis, fold less effective than Fas:COMP was 5 fold.

Q: What does the source list for anti-flag M2 monoclonal antibody?
A: units bound (BIAcore response) [4]: 100 to 150 units; units bound (BIAcore response) [5]: 100 to 150 units; cytotoxic assay on Jurkat cells, fold increase of apoptosis-inducing activity [6]: > 10 fold; cytotoxic assay on A20 and Jurkat cells, fold increase of apoptotic activity [7]: 2 fold and > 1.5 fold

Q: “fusion protein (6), TNFα-ACRP30 (from UniProt Q60994 18-111; P06804 77-235) (ligand)” was tested. Which 3[H]-thymidin incorporation into CT6 cells (cell proliferation) [8] did it give?
A: The 3[H]-thymidin incorporation into CT6 cells (cell proliferation) was 5 ng/mL.

B1: Fas:COMP (receptor, not shown: small tags and cut ends)
chain: QVTDINSKGLELRKTVTTVETQNLEGLHHDGQFCHKPCPPGERKARDCTVNGDEPDCVPCQEGKEYTDKAHFSSKCRRCRLCDEGHGLEVEINCTRTQNTKCRCKPNFFCNSTVCEHCDPCTKCEHGIIKECTLTSNTKCKEEGSPQPQPKPQPKPEPEGGCCQMLRELQETNAALQDVRELLRHRVKEITFLKNTVMECDACGMQPARTPGGGS
modifications: Assembles as a disulphide-linked pentamer through the COMP coiled coil (about 400 kDa by gel filtration). N-glycosylated.
Q: B1 was tested. Which fold lower dissociation constant than Fas:Fc [9] did it give?
A: Its fold lower dissociation constant than Fas:Fc is 8 to 9 fold.

Q: What about the inhibitory activity in cytotoxicity tests on cell lines, fold over Fas:Fc [10] of the same molecule?
A: Its inhibitory activity in cytotoxicity tests on cell lines, fold over Fas:Fc is 10 to 20 fold.

Q: What about the Kd [11] of the same molecule?
A: Its Kd is 0.77 nM.
